Results on 1 molecule are retold here after publication PMC8509050, “BZR1 Physically Interacts with SPL9 to Regulate the Vegetative Phase Change and Cell Elongation in Arabidopsis” (International Journal of Molecular Sciences, 2021).

For the experiment, the target named is T1, glutathione S transferase (GST)-SQUAMOSA PROMOTER BINDING PROTEIN-LIKE9 (SPL9) (Arabidopsis thaliana, UniProt Q700W2 1-375).
T1 construct: SPL9, Arabidopsis thaliana; full-length cDNA without stop codon recombined into pDEST15 (N-GST); also called GST-SPL9; source: Escherichia coli, purified; not shown: GST, N-terminal, kept
T1 sequence (looked up): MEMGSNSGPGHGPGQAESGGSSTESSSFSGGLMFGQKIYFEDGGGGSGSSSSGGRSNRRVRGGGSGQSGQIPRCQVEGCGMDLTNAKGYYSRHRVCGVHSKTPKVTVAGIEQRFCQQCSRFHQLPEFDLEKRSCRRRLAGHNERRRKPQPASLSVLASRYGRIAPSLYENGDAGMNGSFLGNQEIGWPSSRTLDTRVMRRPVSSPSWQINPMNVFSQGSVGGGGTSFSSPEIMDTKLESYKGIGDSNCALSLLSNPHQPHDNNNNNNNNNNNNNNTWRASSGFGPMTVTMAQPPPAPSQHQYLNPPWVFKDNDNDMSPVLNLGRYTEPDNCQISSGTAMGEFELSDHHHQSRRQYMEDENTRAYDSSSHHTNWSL
The experiment in a line: pull-down; glutathione beads with 1 µg GST-SPL9 incubated with 1 µg MBP or MBP-BZR1; 20 mM Tris-HCl pH 7.5, 100 mM NaCl, 1 mM EDTA, 4 °C, 1 h; washed 10 times with 300 mM NaCl, 0.5% TritonX-100; anti-MBP and anti-GST blots. To be noted: both partners purified.

B1: Maltose binding protein (MBP)-BRASSINAZOLE RESISTANT 1 (BZR1) (natural protein, Arabidopsis thaliana, UniProt Q8S307 1-336, looked up)
chain: MTSDGATSTSAAAAAAAAAAARRKPSWRERENNRRRERRRRAVAAKIYTGLRAQGDYNLPKHCDNNEVLKALCVEAGWVVEEDGTTYRKGCKPLPGEIAGTSSRVTPYSSQNQSPLSSAFQSPIPSYQVSPSSSSFPSPSRGEPNNNMSSTFFPFLRNGGIPSSLPSLRISNSCPVTPPVSSPTSKNPKPLPNWESIAKQSMAIAKQSMASFNYPFYAVSAPASPTHRHQFHTPATIPECDESDSSTVDSGHWISFQKFAQQQPFSASMVPTSPTFNLVKPAPQQMSPNTAAFQEIGQSSEFKFENSQVKPWEGERIHDVGMEDLELTLGNGKARG
notes: BZR1, Arabidopsis thaliana; also called MBP-BZR1; MBP-fused BZR1; source: Escherichia coli, purified
For B1, the binding result is “binds”.
